Results published in US20110262748A1.

Key:
[1] = target: human IgG antibody (manufactured by Lampire Biological Laboratories) (human); experiment: column breakthrough binding capacity of human IgG, protein A on crosslinked agarose, 150 cm/hr
[2] = target: human IgG antibody (manufactured by Lampire Biological Laboratories) (human); experiment: column breakthrough binding capacity of human IgG, protein A on crosslinked agarose, 500 cm/hr

Substance: protein A immobilized on crosslinked agarose (MabSelect Xtra, GE Healthcare Biosciences) (from UniProt P38507 37-327)
- binding capacity [1]: 25 mg/mL
- binding capacity [2]: 12 mg/mL
